Experimental data taken from US20050158362A1, “Polymeric, fiber matrix delivery systems for bioactive compounds” (priority 2000, published 2005).

Experiment: In vitro release of FITC-BSA from the fiber matrix into an infinite sink of 37° C. phosphate buffered saline
Assay type: physicochemical
Conditions: polylactic glycolic acid fiber matrix
Excerpt: To construct the bioactive compound-loaded matrices, various concentrations of finely ground FITC-BSA were suspended in biodegradable polymer polylactic glycolic acid in 50:50 dimethyl formamide:tetrahydrofuran. Suspensions contained in a glass syringe with a capillary tip were electrospun into approximately 500 nm diameter fibers via an electrostatic based self-assembly process in which a high voltage electric field was generated between the oppositely charged polymer and a metallic collection screen. At a critical voltage the charge overcomes the surface tension of the deformed polymer drop at the needle tip, producing an ultrafine jet. The similarly charged fibers are splayed and during their passage to the screen, the solvent quickly evaporates so that dry fibers accumulate randomly on the screen forming a mesh matrix.
In vitro release of the FITC-BSA into an infinite sink of 37° C. phosphate buffered saline was also measured. This sink mimics in vivo conditions.
A 25% (w/v) solution of polylactic glycolic acid was prepared in a 50:50 mixture of dimethylformamide and tetrahydrofuran. […]
In vitro release of the FITC-BSA into an infinite sink of 37° C. phosphate buffered saline was measured. […] The amount of protein released was measured in the form of fluorescence of the FITC-BSA on a spectrophotofluorometer at an excitation wavelength of 495 nm and an emission wavelength of 513 nm.

FITC-BSA: fluorescently labeled bovine serum albumin dispersed between electrospun polylactic glycolic acid fibers of the matrix
in vitro release profile of FITC-BSA: release in the first 24 hours after initiation was dominant | duration of observed in vitro release of FITC-BSA (fluorescence readout): over 120 hours
